Columns and labels:
Assay in all cases: cell-based or functional assay
[1] = target: SARS-CoV-2 spike (S) protein, D614G (SARS-CoV-2) (UniProt P0DTC2)
[2] = target: SARS-CoV-2 spike (S) protein, variant B.1.1.7 (SARS-CoV-2)
[3] = target: SARS-CoV-2 spike (S) protein, variant B.1.351 (SARS-CoV-2)
[4] = target: SARS-CoV-2 spike (S) protein, variant B.1.427 (SARS-CoV-2)
[5] = target: SARS-CoV-2 spike (S) protein, variant B.1.429 (SARS-CoV-2)
[6] = target: SARS-CoV-2 spike (S) protein, variant B.1.525 (SARS-CoV-2)
[7] = target: SARS-CoV-2 spike (S) protein, variant B.1.526 (SARS-CoV-2)
[8] = target: SARS-CoV-2 spike (S) protein, variant B.1.617.1 (SARS-CoV-2)
[9] = target: SARS-CoV-2 spike (S) protein, variant B.1.617.2 (SARS-CoV-2)
[10] = target: SARS-CoV-2 spike (S) protein, variant B.1.621 (SARS-CoV-2)
[11] = target: SARS-CoV-2 spike (S) protein, variant BA.1 (SARS-CoV-2)
[12] = target: SARS-CoV-2 spike (S) protein, variant BA.2.86 (SARS-CoV-2) (UniProt P0DTC2)
[13] = target: SARS-CoV-2 spike (S) protein, variant BA.2.86 (SARS-CoV-2)
[14] = target: SARS-CoV-2 spike (S) protein, variant BA.4/5 (SARS-CoV-2)
[15] = target: SARS-CoV-2 spike (S) protein, variant CH.1.1 (SARS-CoV-2) (UniProt P0DTC2)
[16] = target: SARS-CoV-2 spike (S) protein, variant CH.1.1 (SARS-CoV-2)
[17] = target: SARS-CoV-2 spike (S) protein, variant EG.5.1 (SARS-CoV-2) (UniProt P0DTC2)
[18] = target: SARS-CoV-2 spike (S) protein, variant EG.5.1 (SARS-CoV-2)
[19] = target: SARS-CoV-2 spike (S) protein, variant JD.1.1 (SARS-CoV-2)
[20] = target: SARS-CoV-2 spike (S) protein, variant JN.1 (SARS-CoV-2) (UniProt P0DTC2)
[21] = target: SARS-CoV-2 spike (S) protein, variant JN.1 (SARS-CoV-2)
[22] = target: SARS-CoV-2 spike (S) protein, variant KP.2 (SARS-CoV-2) (UniProt P0DTC2)
[23] = target: SARS-CoV-2 spike (S) protein, variant KP.2.3 (SARS-CoV-2) (UniProt P0DTC2)
[24] = target: SARS-CoV-2 spike (S) protein, variant KP.3 (SARS-CoV-2) (UniProt P0DTC2)
[25] = target: SARS-CoV-2 spike (S) protein, variant KP.3.1.1 (SARS-CoV-2) (UniProt P0DTC2)
[26] = target: SARS-CoV-2 spike (S) protein, variant LB.1 (SARS-CoV-2) (UniProt P0DTC2)
[27] = target: SARS-CoV-2 spike (S) protein, variant P.1 (SARS-CoV-2)
[28] = target: SARS-CoV-2 spike (S) protein, variant P.2 (SARS-CoV-2)
[29] = target: SARS-CoV-2 spike (S) protein, variant XBB (SARS-CoV-2)
[30] = target: SARS-CoV-2 spike (S) protein, variant XBB.1.16.6 (SARS-CoV-2)
[31] = target: SARS-CoV-2 spike (S) protein, variant XBB.1.5 (SARS-CoV-2)
[32] = target: SARS-CoV-2 spike (S) protein, variant XBB.2.3.2 (SARS-CoV-2)
[33] = target: SARS-CoV-2 spike (S) protein, variant XEC (SARS-CoV-2) (UniProt P0DTC2)
[34] = target: SARS-CoV-2 spike protein, variant KP.2 (SARS-CoV-2)
[35] = target: SARS-CoV-2 spike protein, variant KP.3 (SARS-CoV-2)

Substance: ADG20 (antibody)
- neutralization IC50 [1]: 0.019 nM
- neutralization IC80 [1]: 0.065 nM
- neutralization IC50 [2]: 0.106 nM
- neutralization IC80 [2]: 0.424 nM
- neutralization IC50 [3]: 0.011 nM
- neutralization IC80 [3]: 0.05 nM
- neutralization IC50 [4]: 0.072 nM
- neutralization IC80 [4]: 0.162 nM
- neutralization IC50 [5]: 0.014 nM
- neutralization IC80 [5]: 0.061 nM
- neutralizing activity IC50 [6]: 0.019 nM
- neutralizing activity IC80 [6]: 0.101 nM
- neutralizing activity IC50 [7]: 0.019 nM
- neutralizing activity IC80 [7]: 0.081 nM
- neutralization IC50 [8]: 0.015 nM
- neutralization IC80 [8]: 0.071 nM
- neutralizing activity IC50 [9]: 0.11 nM
- neutralizing activity IC80 [9]: 0.118 nM
- neutralizing activity IC50 [10]: 0.026 nM
- neutralizing activity IC80 [10]: 0.131 nM
- neutralizing activity IC50 [11]: 13.9 nM
- neutralizing activity IC80 [11]: > 67 nM
- neutralizing activity IC50 (µg/ml (caption; values match nM)) [12]: > 67
- neutralizing activity IC80 (µg/ml (caption; values match nM)) [12]: > 67
- pseudovirus neutralization IC50 [13]: > 67 nM
- pseudovirus neutralization IC80 [13]: > 67 nM
- neutralizing activity IC50 [14]: > 67 nM
- neutralizing activity IC80 [14]: > 67 nM
- neutralizing activity IC50 (µg/ml (caption; values match nM)) [15]: 13.7
- neutralizing activity IC80 (µg/ml (caption; values match nM)) [15]: > 67
- neutralizing activity IC50 [16]: 13.7 nM
- neutralizing activity IC80 [16]: > 67 nM
- neutralizing activity IC50 (µg/ml (caption; values match nM)) [17]: > 67
- neutralizing activity IC80 (µg/ml (caption; values match nM)) [17]: > 67
- pseudovirus neutralization IC50 [18]: > 67 nM
- pseudovirus neutralization IC80 [18]: > 67 nM
- pseudovirus neutralization IC50 [19]: > 67 nM
- pseudovirus neutralization IC80 [19]: > 67 nM
- neutralizing activity IC50 (µg/ml (caption; values match nM)) [20]: > 67
- neutralizing activity IC80 (µg/ml (caption; values match nM)) [20]: > 67
- pseudovirus neutralization IC50 [21]: > 67 nM
- pseudovirus neutralization IC80 [21]: > 67 nM
- neutralizing activity IC50 (µg/ml (caption; values match nM)) [22]: > 67
- neutralizing activity IC80 (µg/ml (caption; values match nM)) [22]: > 67
- neutralizing activity IC50 (µg/ml (caption; values match nM)) [23]: > 67
- neutralizing activity IC80 (µg/ml (caption; values match nM)) [23]: > 67
- neutralizing activity IC50 (µg/ml (caption; values match nM)) [24]: > 67
- neutralizing activity IC80 (µg/ml (caption; values match nM)) [24]: > 67
- neutralizing activity IC50 (µg/ml (caption; values match nM)) [25]: > 67
- neutralizing activity IC80 (µg/ml (caption; values match nM)) [25]: > 67
- neutralizing activity IC50 (µg/ml (caption; values match nM)) [26]: > 67
- neutralizing activity IC80 (µg/ml (caption; values match nM)) [26]: > 67
- neutralizing activity IC50 [27]: 0.021 nM
- neutralizing activity IC80 [27]: 0.117 nM
- neutralization IC50 [28]: 0.034 nM
- neutralization IC80 [28]: 0.121 nM
- neutralizing activity IC50 [29]: 10.6 nM
- neutralizing activity IC80 [29]: > 67 nM
- neutralizing activity IC50 [30]: > 67 nM
- neutralizing activity IC80 [30]: > 67 nM
- neutralizing activity IC50 [31]: > 67 nM
- neutralizing activity IC80 [31]: > 67 nM
- neutralizing activity IC50 [32]: > 67 nM
- neutralizing activity IC80 [32]: > 67 nM
- neutralizing activity IC50 (µg/ml (caption; values match nM)) [33]: > 67
- neutralizing activity IC80 (µg/ml (caption; values match nM)) [33]: > 67
- IC50 (nM), pseudovirus neutralization [34]: > 67 nM
- IC50 (nM), pseudovirus neutralization [35]: > 67 nM

Substance: AZD3152 (antibody)
- IC50, pseudotyped neutralization potency [1]: 0.016 nM
- IC50, pseudovirus neutralization [1]: 0.102 nM
- IC80, pseudotyped neutralization potency [1]: 0.032 nM
- IC80, pseudovirus neutralization [1]: 0.623 nM
- IC50, pseudovirus neutralization [2]: 0.622 nM
- IC80, pseudovirus neutralization [2]: 1.54 nM
- IC50, pseudovirus neutralization [3]: 0.163 nM
- IC80, pseudovirus neutralization [3]: 0.459 nM
- IC50, pseudovirus neutralization [4]: 0.598 nM
- IC80, pseudovirus neutralization [4]: 2.03 nM
- IC50, pseudovirus neutralization [5]: 0.549 nM
- IC80, pseudovirus neutralization [5]: 1.39 nM
- IC50, pseudovirus neutralization [6]: 0.668 nM
- IC80, pseudovirus neutralization [6]: 1.53 nM
- IC50, pseudovirus neutralization [7]: 0.329 nM
- IC80, pseudovirus neutralization [7]: 1.04 nM
- IC50, pseudovirus neutralization [8]: 0.271 nM
- IC80, pseudovirus neutralization [8]: 0.687 nM
- IC50, pseudovirus neutralization [9]: 0.602 nM
- IC80, pseudovirus neutralization [9]: 2.2 nM
- IC50, pseudovirus neutralization [10]: 0.265 nM
- IC80, pseudovirus neutralization [10]: 0.625 nM
- IC50, pseudovirus neutralization [11]: 0.0779 nM
- IC80, pseudovirus neutralization [11]: 0.446 nM
- neutralizing activity IC80 (µg/ml (caption; values match nM)) [12]: 2.23
- IC50, pseudovirus neutralization [13]: 0.351 nM
- IC80, pseudovirus neutralization [13]: 2.23 nM
- IC50, pseudovirus neutralization [14]: 0.198 nM
- IC80, pseudovirus neutralization [14]: 0.656 nM
- neutralizing activity IC80 (µg/ml (caption; values match nM)) [15]: 1.59
- pseudotyped neutralization potency IC50 [15]: 0.501 nM
- pseudotyped neutralization potency IC80 [15]: 1.47 nM
- IC50, pseudovirus neutralization [16]: 0.301 nM
- IC80, pseudovirus neutralization [16]: 1.59 nM
- neutralizing activity IC50 (µg/ml (caption; values match nM)) [17]: > 67
- neutralizing activity IC80 (µg/ml (caption; values match nM)) [17]: > 67
- IC50, pseudovirus neutralization [18]: > 67 nM
- IC80, pseudovirus neutralization [18]: > 67 nM
- IC50, pseudovirus neutralization [19]: > 67 nM
- IC80, pseudovirus neutralization [19]: > 67 nM
- neutralizing activity IC50 (µg/ml (caption; values match nM)) [20]: 5.11
- neutralizing activity IC80 (µg/ml (caption; values match nM)) [20]: 28
- IC50, pseudovirus neutralization [21]: 5.11 nM
- IC80, pseudovirus neutralization [21]: 28 nM
- neutralizing activity IC50 (µg/ml (caption; values match nM)) [22]: > 67
- neutralizing activity IC80 (µg/ml (caption; values match nM)) [22]: > 67
- neutralizing activity IC50 (µg/ml (caption; values match nM)) [23]: > 67
- neutralizing activity IC80 (µg/ml (caption; values match nM)) [23]: > 67
- neutralizing activity IC50 (µg/ml (caption; values match nM)) [24]: > 67
- neutralizing activity IC80 (µg/ml (caption; values match nM)) [24]: > 67
- neutralizing activity IC50 (µg/ml (caption; values match nM)) [25]: > 67
- neutralizing activity IC80 (µg/ml (caption; values match nM)) [25]: > 67
- neutralizing activity IC50 (µg/ml (caption; values match nM)) [26]: > 67
- neutralizing activity IC80 (µg/ml (caption; values match nM)) [26]: > 67
- IC50, pseudovirus neutralization [27]: 0.315 nM
- IC80, pseudovirus neutralization [27]: 0.548 nM
- IC50, pseudovirus neutralization [28]: 0.135 nM
- IC80, pseudovirus neutralization [28]: 0.359 nM
- IC50, pseudovirus neutralization [29]: 0.0748 nM
- IC80, pseudovirus neutralization [29]: 0.349 nM
- IC50, pseudovirus neutralization [30]: > 67 nM
- IC80, pseudovirus neutralization [30]: > 67 nM
- IC50, pseudovirus neutralization [31]: 0.109 nM
- IC80, pseudovirus neutralization [31]: 0.355 nM
- IC50, pseudovirus neutralization [32]: 0.168 nM
- IC80, pseudovirus neutralization [32]: 0.513 nM
- neutralizing activity IC50 (µg/ml (caption; values match nM)) [33]: > 67
- neutralizing activity IC80 (µg/ml (caption; values match nM)) [33]: > 67
- IC50 (nM), pseudovirus neutralization [34]: > 67 nM
- IC50 (nM), pseudovirus neutralization [35]: > 67 nM
